According to patent US20250340659A1 (PETMEDIX, published 2025):

T1: canine OX40L, full length membrane form, expressed on HEK293 cells (canine)
T1 construct: also called OX40L expressing HEK; HEK OX40L cells
T1 chain: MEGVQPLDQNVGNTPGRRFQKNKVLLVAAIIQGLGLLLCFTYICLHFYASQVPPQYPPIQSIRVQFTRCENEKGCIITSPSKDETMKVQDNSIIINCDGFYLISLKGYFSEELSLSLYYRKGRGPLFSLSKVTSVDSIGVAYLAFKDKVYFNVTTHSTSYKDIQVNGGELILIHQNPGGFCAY

T2: recombinant canine OX40L ECD-TNCc-HIS protein (canine)
T2 construct: also called Trimeric OX40L probe (HIS tag); trimeric canine OX40L
T2 chain: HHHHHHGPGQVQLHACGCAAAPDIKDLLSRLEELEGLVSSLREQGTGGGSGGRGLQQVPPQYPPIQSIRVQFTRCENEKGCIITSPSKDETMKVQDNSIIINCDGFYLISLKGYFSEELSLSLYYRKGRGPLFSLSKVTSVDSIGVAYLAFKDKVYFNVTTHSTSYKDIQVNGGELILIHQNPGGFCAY


Columns and labels:
[1] = target: T1, canine OX40L, full length membrane …; experiment: flow cytometry
How it was run: (§1)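 CHO supernatants at 1, 5 or 10 μg/ml in PBS/3% FBS incubated 30′ on ice with cells surface-expressing canine OX40L. Bound antibody detected with fluorescent anti-canine Fc secondary (1:1000, 30 min, dark) and measured by flow cytometry, with parental WT HEK signal subtracted where stated.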

[2] = target: T2, recombinant canine OX40L ECD-TNCc-HIS …; experiment: SPR Koff (kd1)
How it was run: (§2)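 Purified antigen amine-coupled at low density to a CM5 chip; candidate antibodies injected as analyte over a concentration range. Kinetic curves fitted with a bivalent analyte model to give functional affinity and dissociation rates.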

[3] = target: T2, recombinant canine OX40L ECD-TNCc-HIS …; experiment: SPR Koff (kd2)
How it was run: as §2

[4] = target: T1, canine OX40L, full length membrane …; experiment: cell-based or functional assay
[5] = target: T2, recombinant canine OX40L ECD-TNCc-HIS …; experiment: SPR KD1, bivalent analyte model
How it was run: as §2

[6] = target: T1, canine OX40L, full length membrane …; experiment: flow cytometry, OX40L HEK minus WT HEK
How it was run: as §1

GEO mean OX40L expressing HEK [1] | koff [2] | koff [3] | % Signal Inhibition Average [4] | % Signal Inhibition Rep1 [4] | % Signal Inhibition Rep2 [4] | % Signal Inhibition Rep3 [4] | Kd [5] | GEO mean difference [6] | Binder
738000 | 0.032 s⁻¹ | 0.000294 s⁻¹ | 32.7% | 19.9% | 37.4% | 40.9% | 90.6 nM | 730000 | PMX155 (antibody, V domains shown) VH: ELHLVESGGDLVKPAGSLRLSCVASGFTFSSFRMSWVRQSPGKGLQFVAGINSDGYNTQYRDDVKGRFTISRDNTEKTLYLQMNNLRVEDTAMYYCVKDQGSWGGNFDFWGQGTLVTVSS VL: SYGLTQPPSVNVTLRETAHITCGGDSIGSKYVQWIQQIPGQAPVVIIYKDRNRPTGIPERFSGANSGNTATLTISGALAEDEADYYCQVGDSGTSVFGGGTHLTVL
680000 | 0.102 s⁻¹ | 0.000238 s⁻¹ | 35.1% | 21.6% | 34.5% | 49.1% | 1980 nM | 672000 | PMX156 (antibody, V domains shown) VH: ELQLVESGGDLVKPAGSLRLSCVASGFTFSNFRMSWVRQAPGKGLQFVAGINSDGYSTQYRDDVKGRFTISRDNTEKTLYLQMNNLRVEDTAMYYCVKDQGSWGGNFDYWGQGTLVTVSS VL: SYGLTQPPSVNVTLRETAHITCGGDSIGSKYVQWIQQIPGQAPVVIIYKDRNRPTGIPERFSGANSGNTATLTISGALAEDEADYYCQVGDSGTSVFGGGTHLTVL
1.09e+06 | 0.0294 s⁻¹ | 0.000779 s⁻¹ | 69.4% | 75.8% | 76.2% | 56% | 51.6 nM | 1.06e+06 | PMX029 (antibody, V domains shown, also called PMX29) VH: EVQLVESGGDLVKPGGSLRLSCVASGFTFSSYHMNWVRQAPGKGLQWVAYINTGGSRTSYADAVKGRFTISRDNAKNTLYLQMNSLRAEDTAVYYCANNYWDNFDSWGQGTLVTVSS VL: SYELTQPPSVNVTLRETAHITCGGDSIGSKYVQWIQQNPGQAPVVIIYKDTNRPTGIPERFSGANSGNTATLTISGALAEDEADYYCQVGDSGTKASVFGGGTHLTVL
3.55e+06 | 0.0125 s⁻¹ | 0.412 s⁻¹ | 72.6% | 62.7% | 85.3% | 69.9% | 107 nM | 3.52e+06 | PMX065 (antibody, V domains shown, also called PMX65) VH: EVQLVESGGDLVKPGGSLRLSCVASGFTFNNYEMYWVRQAPGKGLEWVARIYESGSTTFSAEAVTGRFTISRDNAKNMVYLQMNSLRAEDTAVYYCASASSSSWRFDYWGQGTLVTVSS VL: SYVLTQLPSVSVTLGQTARITCGGDSIGRKNVCWFQQRLGQAPELIIYDDRSRPSGIPERFSGANSGNTATLTISGALAEDEADYYCQVWDSSTGVFGGGTHLTVL
1.41e+06 | 0.0311 s⁻¹ | 0.000498 s⁻¹ | 73.5% | 85.3% | 67.4% | 67.8% | 269 nM | 1.38e+06 | PMX035 (antibody, V domains shown, also called PMX35) VH: EVQLVESGGDLVKPGGSLRLSCVASGFTFSNFEMYWVRQAPGKGLEWVARIYKSGSTTYHSERVKGRFTISKDSATNMAFLQMNSLRAEDTAVYYCTSASSTGWRFDYWGQGTLVTVSS VL: SYVLTQLPSVSVTLRQTARITCGGDSIGRKNVCWFQQKLGQAPVLIIYDDNSRPSGIPERFSGANSGNTATLTISGALAEDEADYYCQVWDSSTGIFGGGTHLTVL
595000 | 0.00155 s⁻¹ | 2.69 s⁻¹ | 78.6% | 94% | 88.7% | 53% | 14.4 nM | 591000 | PMX294 (antibody, V domains shown) VH: EVQLVESGGDLVKPEGSLRLSCAVSGFTFSSNDMSWVRQAPGKGLQWVAYITYDGRSTSYTDIVKGRFTVSRDNAKNTLYLQMNSLRSEDAAVYYCAKAQRGWFFDYWGQGTLVTVSS VL: SYVLTQLPSVSVTLRQTARITCGGDSIGSKNVYWYQQKLGQAPVLIIYDDDSRPSGIPERISGANSGNTATLTISGALAEDEADYYCQVWDSSTGVFGGGTHLTVL
602000 | 0.000387 s⁻¹ | 145 s⁻¹ | 73.7% | 81.6% | 77.5% | 62.1% | 1 nM | 598000 | PMX293 (antibody, V domains shown) VH: EVRLLESGGDLVKPAGSLRLSCAVSGFTFSTYDMSWVRQAPGKGLQWVAYITYDGRTTSYTDTVKGRFTVSRDNAKNMLYLKMNSLRSEDAAVYYCAKAHRGWFFDHWGQGTLVTVSS VL: SYVLTQLPSVSVTLRQTARITCGGDSIGSKNVYWYQQKLGQAPVLIIYDDTSRPSGIPERFSGANSGTTATLTISGALAEDEADYYCQVWDSSTGVFGGGTHLTVL
1.42e+06 | 0.0283 s⁻¹ | 0.000924 s⁻¹ | 65.6% | 70.6% | 83.9% | 42.3% | 114 nM | 1.39e+06 | PMX030 (antibody, also called PMX30) heavy: EVQLVESGGDLVKPGGSLRLSCVASGFTFSNYHMNWVRQAPGKGLQWVAYVVSGGSTTSYADAVKGRFTISRDNAKNTLYLQMNSLRAEDTAVYYCAKGTSSWGVPMDYWGHGTSLFVSSASTTAPSVFPLAPSCGSTSGSTVALACLVSGYFPEPVTVSWNSGSLTSGVHTFPSVLQSSGLYSLSSMVTVPSSRWPSETFTCNVAHPASKTKVDKPVPKRENGRVPRPPDCPKCPAPESLGGPSVFIFPPKPKDTLLIARTPEVTCVVVDLGREDPEVQISWFVDGKQMQTAKTQPREEQFNGTYRVVSVLPIGHQDWLKGKQFTCKVNHIGLPSPIERTISKARGQAHQPSVYVLPPSREELSKNTVSLTCLIKDFFPPDIDVEWQSNGQQEPESKYRTTPPQLDEDGSYFLYSKLSVDKSRWQRGDTFICAVMHEALHNHYTQKSLSHSPGK VL: SYVLTQLPSVSVTLRQTARITCGGDSIRSKNVYWYQQKLGQAPVLIIYDDSSRPSGIPERFSGANSGNTATLTISGALAEDEADYYCQVWDSSTSVFGGGTHLTVL
1.18e+06 | 0.000748 s⁻¹ | 0.436 s⁻¹ | 77.1% | 75.4% | 84.2% | 71.8% | 1.26 nM | 1.15e+06 | PMX040 (antibody, V domains shown, also called PMX40) VH: EVQLVESGGDLVKPGGSLRLSCVASGFTFSNFEMYWVRQAPGKGLEWVARIYESGTTTYHAEGVKGRFTISKDNVKNMAYLQMNSLRAEDTAVYYCTSASSSSWRFDYWGQGTLVTVSS VL: SYVLTQLPSVSVTLRQTARITCGGDSIGRKNVCWFQQKLGQAPILIIYDDSSRPSGIPERFSGANSGNTATLTISGALAEDEADYYCQVWDSSTGIFGGGTHLTVL
1.55e+06 | 0.0124 s⁻¹ | 0.000606 s⁻¹ | 78.4% | 83.5% | 89.1% | 62.7% | 154 nM | 1.51e+06 | PMX031 (antibody, also called PMX31) heavy: EVQLVESGGDLVKPGGSLRLSCVASGFTFSNYHMNWVRQAPGKGLQWVAYVVSGGTTTTYADAVKGRFTISRDNAKNTLYLQMNSLRAEDTAVYYCAKGTSTWGVPMDYWGHGTSLFVSSASTTAPSVFPLAPSCGSTSGSTVALACLVSGYFPEPVTVSWNSGSLTSGVHTFPSVLQSSGLYSLSSMVTVPSSRWPSETFTCNVAHPASKTKVDKPVPKRENGRVPRPPDCPKCPAPESLGGPSVFIFPPKPKDTLLIARTPEVTCVVVDLGREDPEVQISWFVDGKQMQTAKTQPREEQFNGTYRVVSVLPIGHQDWLKGKQFTCKVNHIGLPSPIERTISKARGQAHQPSVYVLPPSREELSKNTVSLTCLIKDFFPPDIDVEWQSNGQQEPESKYRTTPPQLDEDGSYFLYSKLSVDKSRWQRGDTFICAVMHEALHNHYTQKSLSHSPGK VL: SYVLTQLPSVSVTLRQTARITCGGDSIRSKNVYWYQKKLGQAPVLIIYDDSSRPSGIPERFSGANSGNTATLTISGALAEDEADYYCQVWDSSTSVFGGGTHLTVL
789000 | 0.00384 s⁻¹ | 6.94 s⁻¹ | 63.7% | 62.6% | 77.2% | 51.5% | 15.6 nM | 781000 | PMX154 (antibody, V domains shown) VH: EVQLVESGGDLVKPEGSLRLSCVVSGFTFSGFDMSWVRQAPGKGLQWVAYISTDGRSTGYTDAVKGRFTISRDNVKNTLYLQMNSLRTEDTAVYYCAKETRHWGFDYWGQGTLVIVSS VL: SYVLTQLSSVSVSLRQTAHITCGGDSIGRKNVYWHQQKLGRAPILIIYDDSSRPSGIPERFSGANSGNTATLTISGALAEDEAAYYCQVWDSSTSVFGGGTHLTVL
